Results reported in patent US20120014945A1 (ACADEMIA SINICA, published 2012).

Legend:
[1] = target: DENV-2 (16681) envelope (E) protein (dengue virus type 2 (DENV-2 16681)) (UniProt P29990); experiment: cell-based or functional assay
[2] = target: T1, DENV-3 (H87) envelope (E) protein (dengue virus type 3 (DENV-3 H87), UniProt P27915 281-773); experiment: ELISA on DENV-3-infected C6/36 cells
T1 construct: whole, on cells

[3] = target: T2, DENV-4 (H241) envelope (E) protein (dengue virus type 4 (DENV-4 H241), UniProt Q58HT7 280-774); experiment: ELISA on DENV-4-infected C6/36 cells
T2 construct: whole, on cells
T2 sequence (Q58HT7 280-774): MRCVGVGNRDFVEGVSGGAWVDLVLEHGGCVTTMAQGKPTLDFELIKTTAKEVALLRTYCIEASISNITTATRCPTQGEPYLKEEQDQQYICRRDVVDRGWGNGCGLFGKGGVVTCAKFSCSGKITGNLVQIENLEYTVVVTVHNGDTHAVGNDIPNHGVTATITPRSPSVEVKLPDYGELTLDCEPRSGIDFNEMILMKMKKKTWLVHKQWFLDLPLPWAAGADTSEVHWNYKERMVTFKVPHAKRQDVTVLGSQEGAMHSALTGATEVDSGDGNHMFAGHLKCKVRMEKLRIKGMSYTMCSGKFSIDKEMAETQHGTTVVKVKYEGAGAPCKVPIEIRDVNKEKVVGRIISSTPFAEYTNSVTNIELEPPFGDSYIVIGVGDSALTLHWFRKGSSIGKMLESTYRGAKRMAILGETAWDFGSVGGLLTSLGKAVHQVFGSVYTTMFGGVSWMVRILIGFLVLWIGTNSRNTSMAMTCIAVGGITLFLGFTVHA

3H5 (antibody) showed a PRNT50 (µg/ml), D2 [1] of under 0.41 µg/mL and a concentration of complete inhibition of viral infection (PRNT) [1] of 11 µg/mL.

4G2 (antibody) showed a PRNT50 (µg/ml), D2 [1] of under 11 µg/mL.

normal mouse IgG (antibody) gave a neutralizing activity (PRNT) [1] of over 100 µg/mL.

B1: DB25-2 (antibody, V domains shown)
VH: QVQLKESGPGLVQPSQSLSITCTVSGFSLTDYGVHWIRQSPGKGLEWLGVIWRGGITDYNAAFMSRLSITKDNSKSQVFFKMDSLQPDDSAIYYCAKNFGTHYYGSNYGNFDYWGQGTTLTVSS
VL: VVMTQTPKFLLVSAGDRVTITCKASQSVSNDVAWYQQKPGQSPKLLIYYVSNRYSGVPDRFTGSGYGTDFTFTINTVQAEDLAVYFCQQDYSSPYTFGGGTKLEIK
B1: no binding (tested: A490 < 0.2 (MAb at 1 µg/ml)) [2]; no binding (tested: A490 < 0.2 (MAb at 1 µg/ml)) [3].
